Experimental data from PMC5512444 (Structure (London, England : 1993), 2017).
Positions count from the first letter of the chain named. Like-named read-outs stand apart in the source and are kept apart here.

Columns and labels:
Ube2g2 (Homo sapiens) [1] = target: Ube2g2 (Homo sapiens) (UniProt P60604); details: cited from earlier work
Ube2g2 (Homo sapiens) [2] = target: Ube2g2 (Homo sapiens) (UniProt P60604); details: cited from earlier work; remark: listed apart in the source
Ube2g2 (Homo sapiens) [3] = target: Ube2g2 (Homo sapiens) (UniProt P60604); details: cited from earlier work; remark: listed apart in the source
Ube2g2 (Homo sapiens) [4] = target: Ube2g2 (Homo sapiens) (UniProt P60604); details: cited from earlier work; remark: listed apart in the source
C89K-Ube2g2 = target: T1, C89K-Ube2g2 (human, UniProt P60604 1-165, C89K); test: NMR 15N CPMG relaxation dispersion of the complex compared with the free protein
T1 sequence: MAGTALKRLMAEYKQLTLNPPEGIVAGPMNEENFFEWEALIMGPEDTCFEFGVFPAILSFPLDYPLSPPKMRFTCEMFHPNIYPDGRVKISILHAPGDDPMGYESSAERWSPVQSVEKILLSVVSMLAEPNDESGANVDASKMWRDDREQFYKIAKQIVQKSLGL

Y103G-Ube2g2 = target: T2, Y103G-Ube2g2 (human, UniProt P60604 1-165, Y103G); test: ITC
T2 sequence: T1 sequence with K89C, Y103G

Ube2g2 (wild type) = target: T3, Ube2g2 (wild type) (human, UniProt P60604 1-165); test: NMR 15N heteronuclear NOE of the complex compared with the free protein
T3 sequence: T1 sequence with K89C

For gp78 G2BR (from UniProt Q9UKV5), the Kd (Ube2g2 (Homo sapiens) [1]) is listed as 21 nM.

For gp78 RING (from UniProt Q9UKV5), the Kd (Ube2g2 (Homo sapiens) [2]) is listed as 3000 nM and the Kd (Ube2g2 (Homo sapiens) [3]) is listed as 144000 nM.

In the case of gp78 RING-G2BR (from UniProt Q9UKV5), the Kd (Ube2g2 (Homo sapiens) [4]) is given as 38 nM.

B1: RING-G2BR fusion protein of gp78 (domain or fragment, human)
chain: KNYLRVVGNMEARFAVATPEELAVNNDDCAICWDSMQAARKLPCGHLFHNSCLRSWLEQDTSCPTCRMSLNIADNNRVREEGGGGGGGSSGSSGGSGGGSGSSSGGGGGSGGGSGGGGGGGADERQRMLVQRKDELLQQARKRFLNK
B1: binds (C89K-Ube2g2).

With WSADERQRMLVQRKDELLQQARKRFLNK [G2BR peptide of gp78 (Ube2g2 binding region)] the Kd (Y103G-Ube2g2) was 59 ± 6 nM, the dH (Y103G-Ube2g2) was -39.5 ± 0.4 kcal/mol and the “stoichiometry N” value (Y103G-Ube2g2) was 0.95. WSADERQRMLVQRKDELLQQARKRFLNK [G2BR peptide of gp78 (Ube2g2 binding region)]: binds (Ube2g2 (wild type)).
